These results are taken from patent publication US20140235701, “NGF APTAMER AND APPLICATION THEREOF” (RIBOMIC INC., published 2014).

Holding throughout (conditions): tags: R&D Systems; chain copies: 2
Data set [1] deals with T1, NGF (nerve growth factor) (Homo sapiens, UniProt P01138 P01138:122-241). The experiment in a line: cell_activity; TF-1 proliferation. The procedure:
(§1) Two NGF receptor (human TrkA and human p75) genes were introduced into TF-1 cells (ATCC Number: CRL-2003), which is a human erythroleukemic cell line, by using a retrovirus vector to give cells that highly express two receptors simultaneously and stably. The cells were suspended in an RPMI-1640 medium containing 20% fetal bovine serum, and seeded in a white 96 well flat-bottom plate at 1000 cells (50 μL) per well. […] With the amount of luminescence per well obtained by the addition of NGF alone and culture of the cells for 3 days as inhibitory activity 0%, and that of the well obtained by NGF free culture for 3 days as inhibitory activity 100%, the inhibitory activity of the aptamer was calculated from the amount of luminescence per well obtained by culturing with the addition of NGF and the aptamer in mixture.

Data set [2] deals with T1, NGF (nerve growth factor). The experiment in a line: cell_activity; neurite; TF-1 >10.
The target of data set [3] is T1, NGF (nerve growth factor). The experiment in a line: cell_activity; neurite; TF-1 0.016.
Data set [4] has as its target T1, NGF (nerve growth factor). The experiment in a line: cell_activity; neurite; TF-1 0.322.
A further data set has as its target T2, NT-3 (neurotrophin-3) (Homo sapiens, UniProt P20783 P20783:139-257).
T2 sequence: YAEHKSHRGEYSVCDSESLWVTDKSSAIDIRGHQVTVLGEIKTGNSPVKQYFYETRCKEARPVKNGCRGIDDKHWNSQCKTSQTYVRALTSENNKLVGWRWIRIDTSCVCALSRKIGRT
The experiment in a line: SPR; scarcely bound. How it is done: (§2) The binding activity of these shortened forms to NGF and NT-3 was measured by the surface plasmon resonance method. For the measurement method, BIAcore2000 manufactured by BIAcore was used and CM5 reactive with amino group was used as a sensorchip, as shown in Example 1. The protein was immobilized in the same manner as in Example 1 by using ethyl-3-carbodiimide hydrochloride and N-hydroxysuccinimide. […] After protein immobilization, blocking with ethanolamine-HCl was performed. The amount of immobilized NGF and NT-3 was 3,000-4,000 RU and 3,000-5,000 RU, respectively. The aptamer for an analyte was prepared to 0.15 μM-0.5 μM. The running buffer and regeneration solution were the same as those in Example 1. NT-3 was immobilized on FC2, and NGF on FC3, and the final sensorgram was obtained by subtracting the results of FC1.
(§3) Then, the aptamers were subjected to shortening to 40 mer in the same manner as with consensus secondary structure 1. […] NT-4 was measured in the same manner as in NT-3.
(§4) The shortened sequences were measured for the binding to NGF, NT-3, NT-4 by the surface plasmon resonance method. The measurement was performed in the same manner as in Example 13.
For orientation: In SPR one partner is held on a chip, and binding of the other changes the refractive index at the surface.

Data set [5] concerns the target T1, NGF (nerve growth factor). The experiment in a line: cell_activity; neurite; TF-1 0.015.
The target of data set [6] is T1, NGF (nerve growth factor). The experiment in a line: cell_activity; neurite; TF-1 0.363.
The target in data set [7] is T1, NGF (nerve growth factor). The experiment in a line: cell_activity; neurite; TF-1 0.056.
The target of the next data set is T3, NT-4 (neurotrophin-4) (Homo sapiens, UniProt P34130 P34130:81-210).
T3 sequence: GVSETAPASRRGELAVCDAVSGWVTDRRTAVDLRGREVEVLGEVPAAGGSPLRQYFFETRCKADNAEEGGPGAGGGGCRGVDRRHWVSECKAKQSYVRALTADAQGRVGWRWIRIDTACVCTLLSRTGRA
The experiment in a line: SPR; scarcely bound. The procedure: as §2, §3, §4

In data set [8] the target is T1, NGF (nerve growth factor). The experiment in a line: cell_activity; neurite; TF-1 0.183.
The target of data set [9] is T1, NGF (nerve growth factor). The experiment in a line: cell_activity; neurite; TF-1 0.266.
In data set [10] the target is T1, NGF (nerve growth factor). The experiment in a line: cell_activity; neurite; TF-1 0.081.
The target of data set [11] is T1, NGF (nerve growth factor). The experiment in a line: cell_activity; neurite; TF-1 0.296.
Data set [12] addresses T1, NGF (nerve growth factor). The experiment in a line: cell_activity; neurite; TF-1 0.193.
The target in data set [13] is T1, NGF (nerve growth factor). The experiment in a line: cell_activity; neurite; TF-1 0.311. The procedure:
(§5) With the neurite length per cell obtained by the addition of NGF alone as inhibitory activity 0%, and that of the cell obtained by NGF free culture for 2 days as inhibitory activity 100%, the inhibitory activity of the aptamer was calculated from the neurite length per cell obtained by culturing with the addition of NGF and the aptamer in mixture.
as §1

For data set [14], the target named is T1, NGF (nerve growth factor). The experiment in a line: cell_activity; neurite; TF-1 0.047.
Data set [15] concerns the target T1, NGF (nerve growth factor). The experiment in a line: cell_activity; neurite; TF-1 0.039. The procedure:
as §5, §1

For data set [16], the target named is T1, NGF (nerve growth factor). The experiment in a line: cell_activity; neurite; TF-1 0.048.
Data set [17] concerns the target T1, NGF (nerve growth factor). The experiment in a line: cell_activity; neurite; TF-1 0.455.

Numbering of substitutions follows the chain as printed.

T1 sequence (P01138 122-241, one chain of several): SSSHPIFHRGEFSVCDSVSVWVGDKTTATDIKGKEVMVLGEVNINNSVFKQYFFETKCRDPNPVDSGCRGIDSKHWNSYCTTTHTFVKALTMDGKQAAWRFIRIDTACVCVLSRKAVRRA

B1: SEQ ID NO: 62(1) (ssRNA)
RNA: GGGUCCUGCUGCGGAGUUUCCGUCUCGGUGGCUGUUACCC
modifications: 2'-OMe G (G8,G34 2'-OH), dA, 2'-F C/U; 5',3' idT
In general, IC50 refers to the point on the concentration scale where inhibition reaches its midpoint. Lower therefore signals inhibition by little substance. B1 gave an IC50 in data set [1] of 0.49 nM.

B2: SEQ ID NO: 86 (ssRNA)
RNA: B1 RNA with G14U, G22U, C26G, G27C, C32U
modifications: 2'-F C/U, dA, 2'-OH G
Turning to B2, in [2], the IC50 was 0.834 nM.

B3: SEQ ID NO: 78(2) (ssRNA)
RNA: GGGUCCUGGCCAAGAGUUUCCGUCUCGUGGUCUGUUACCC
modifications: 2'-OMe G (G8,G34 2'-OH), dA, 2'-F C/U except 2'-OMe U4,C6,C21,U23,C26,U28,U31,C32,U35,C38-40; 5',3' idT
B3 came in with an IC50 in data set [3] of 0.045 nM.

B4: SEQ ID NO: 116 (ssRNA)
RNA: B3 RNA with G9U, C10U, G30A, U31A
modifications: 2'-F C/U, dA, 2'-OH G
Molecule B4 showed an IC50 in data set [4] of 0.411 nM. The binding result with NT-3 (neurotrophin-3) was “no binding”.

B5: SEQ ID NO: 78(3) (ssRNA)
RNA: B3 RNA
modifications: 2'-OMe G (G8,G34 2'-OH), dA, 2'-F C/U except 2'-OMe U4,C6,C10,C11,C21,U23,C26,U28,C32,U35,C38-40; 5',3' idT
B5 returned an IC50 in data set [5] of 0.045 nM.

B6: SEQ ID NO: 111 (ssRNA)
RNA: B3 RNA with G9U, C11U, G29A, U31A
modifications: 2'-F C/U, dA, 2'-OH G
With B6, in data set [6], the IC50 was found to be 0.252 nM.

B7: SEQ ID NO: 82(48) (ssRNA)
RNA: B3 RNA with C10A, C11U, G29A, G30U, U31C
modifications: as 82(25) except 2'-OMe A10,A15,A29,A37
In the case of B7, half-maximal inhibition in data set [7] (IC50) was put at 0.252 nM.

B8: SEQ ID NO: 115 (ssRNA)
RNA: B3 RNA with G9U, C11U, G29A, U31A
modifications: 2'-F C/U, dA, 2'-OH G
B8: the binding result in the data set with NT-3 (neurotrophin-3) and with NT-4 (neurotrophin-4) was “no binding” each time. 0.298 nM corresponded to half-maximal inhibition in data set [8] (IC50).

B9: SEQ ID NO: 82(63) (ssRNA)
RNA: B3 RNA with C10A, C11U, G29A, G30U, U31C
modifications: as 82(48) without 5' idT; PS between G34 and U35
For B9, in data set [9], the IC50 was 0.046 nM.

B10: SEQ ID NO: 82(60) (ssRNA)
RNA: B3 RNA with C10A, C11U, G29A, G30U, U31C
modifications: as 82(48) without 5' idT; PS between A12 and A13
On to B10, for which, in data set [10], the IC50 came out at 0.034 nM.

B11: SEQ ID NO: 114 (ssRNA)
RNA: B3 RNA with G9A, C11A, G29U
modifications: 2'-F C/U, dA, 2'-OH G
Take B11: the binding result with NT-3 (neurotrophin-3) and in the data set with NT-4 (neurotrophin-4) was “no binding” in each case. This molecule displayed an IC50 in data set [11] of 0.363 nM.

B12: SEQ ID NO: 112 (ssRNA)
RNA: B3 RNA with G9U, C10U, U31A
modifications: 2'-F C/U, dA, 2'-OH G
As to B12, the midpoint of inhibition in data set [12], the IC50, lay at 0.334 nM. In addition, the binding result with NT-3 (neurotrophin-3) and with NT-4 (neurotrophin-4) was “no binding” each time.

B13: SEQ ID NO: 85 (ssRNA)
RNA: GGGUCCUGAGUAAGAGUUUCCGUCUCAUACUCUGUUACCC
modifications: 2'-F C/U, dA, 2'-OH G
Consider B13, for which the IC50 in data set [13] is < 0.3 nM.

B14: SEQ ID NO: 163 (ssRNA)
RNA: GGGUCCUGGAUAAGAGTUUCCGUCUCGUAUCCTGUUACCC
modifications: as 82(25) except dT17,dT33,dU36
On to B14, for which half-maximal inhibition in data set [14] (IC50) was put at 0.113 nM.

B15: SEQ ID NO: 165 (ssRNA)
RNA: B14 RNA
modifications: as 82(25) except dT17,dT33,dU36, 2'-OMe A37
The molecule B15 came in with an IC50 in data set [15] of 0.139 nM.

B16: SEQ ID NO: 164 (ssRNA)
RNA: B14 RNA
modifications: as 82(25) except dU7,dT17,dT33
On to B16, for which, in data set [16], half-maximal inhibition (IC50) was put at 0.132 nM.

B17: SEQ ID NO: 117 (ssRNA)
RNA: GGGUCCUGUUGAAGAGUUUCCGUCUCGUCAACUGUUACCC
modifications: 2'-F C/U, dA, 2'-OH G
In the case of B17, in data set [17], the IC50 came out at 0.394 nM. Further, the binding result with NT-3 (neurotrophin-3) and with NT-4 (neurotrophin-4) was “no binding” throughout.
